The text below walks through data of article PMC4737164, “DNA recognition for virus assembly through multiple sequence-independent interactions with a helix-turn-helix motif”.

Data set [1] concerns the target T1, SF6 small terminase (GP1) DBD wild type (Bacillus phage SF6, UniProt P68928 1-68).
T1 sequence: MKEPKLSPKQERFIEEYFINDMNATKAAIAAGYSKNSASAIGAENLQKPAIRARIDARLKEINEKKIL
As to the kind of experiment: SPR; 150 mM KCl; superstoichiometric, low affinity; 20 mM HEPES, 150 mM KCl (300 mM in second ReDCaT), pH 7.0, +0.05% Tween 20 for SPR; ReDCaT 20 uM protein; AUC 20 C; NMR 20 mM MES, 150 mM KCl, pH 6.0, 25 C. The note with it: protein: recombinant; tags: C-terminal 3C site-His tag, cleaved; label: 5'-biotin strand 3; nicked 50 bp.

The target of data set [2] is T1, SF6 small terminase (GP1) DBD wild type. Briefly: SPR; 300 mM KCl; not significantly changed vs P6/F3; 20 mM HEPES, 150 mM KCl (300 mM in second ReDCaT), pH 7.0, +0.05% Tween 20 for SPR; ReDCaT 20 uM protein; AUC 20 C; NMR 20 mM MES, 150 mM KCl, pH 6.0, 25 C. The note with it: protein: recombinant; tags: C-terminal 3C site-His tag, cleaved; label: 5'-biotin strand 3; nicked 50 bp. For orientation: Surface plasmon resonance follows binding to a sensor surface in real time, without labels.

Data set [3] has the same target. Briefly: AUC; 1 mM protein; 5 proteins per DNA, not saturated; 20 mM HEPES, 150 mM KCl (300 mM in second ReDCaT), pH 7.0, +0.05% Tween 20 for SPR; ReDCaT 20 uM protein; AUC 20 C; NMR 20 mM MES, 150 mM KCl, pH 6.0, 25 C. The note with it: protein: recombinant; tags: C-terminal 3C site-His tag, cleaved; label: 5'-TAMRA strand 1; blunt.
For data set [4] the target is unchanged. As to the kind of experiment: SPR; 300 mM KCl; above-average density; 20 mM HEPES, 150 mM KCl (300 mM in second ReDCaT), pH 7.0, +0.05% Tween 20 for SPR; ReDCaT 20 uM protein; AUC 20 C; NMR 20 mM MES, 150 mM KCl, pH 6.0, 25 C. Particulars: protein: recombinant; tags: C-terminal 3C site-His tag, cleaved; label: 5'-biotin strand 3; nicked 50 bp.
Data set [5] deals with T2, SF6 small terminase DBD K48A (Bacillus phage SF6, UniProt P68928 1-68, K48A).
T2 sequence: T1 sequence with K48A
As to the kind of experiment: SPR; up to 1500 uM protein; 20 mM HEPES, 150 mM KCl (300 mM in second ReDCaT), pH 7.0, +0.05% Tween 20 for SPR; ReDCaT 20 uM protein; AUC 20 C; NMR 20 mM MES, 150 mM KCl, pH 6.0, 25 C. The note with it: protein: recombinant; tags: C-terminal 3C site-His tag, cleaved; label: 5'-biotin strand 1 (SPR); none in NMR; blunt.

The target in data set [6] is T3, SF6 small terminase DBD K26A (Bacillus phage SF6, UniProt P68928 1-68, K26A).
T3 sequence: T1 sequence with K26A
As to the kind of experiment: SPR; McGhee-von Hippel, site size 3 bp; 20 mM HEPES, 150 mM KCl (300 mM in second ReDCaT), pH 7.0, +0.05% Tween 20 for SPR; ReDCaT 20 uM protein; AUC 20 C; NMR 20 mM MES, 150 mM KCl, pH 6.0, 25 C. Particulars: protein: recombinant; tags: C-terminal 3C site-His tag, cleaved; label: 5'-biotin strand 1 (SPR); none in NMR; blunt.

In data set [7] the target is T1, SF6 small terminase (GP1) DBD wild type. As to the kind of experiment: SPR; McGhee-von Hippel, site size 3 bp; not saturated; 20 mM HEPES, 150 mM KCl (300 mM in second ReDCaT), pH 7.0, +0.05% Tween 20 for SPR; ReDCaT 20 uM protein; AUC 20 C; NMR 20 mM MES, 150 mM KCl, pH 6.0, 25 C. The note with it: protein: recombinant, tags: C-terminal 3C site-His tag, cleaved, label: 5'-biotin strand 1 (SPR), blunt.

The target is the same in data set [8]. As to the kind of experiment: AUC; 1:1; Kd stated in mM range; 20 mM HEPES, 150 mM KCl (300 mM in second ReDCaT), pH 7.0, +0.05% Tween 20 for SPR; ReDCaT 20 uM protein; AUC 20 C; NMR 20 mM MES, 150 mM KCl, pH 6.0, 25 C. The note with it: protein: recombinant; tags: C-terminal 3C site-His tag, cleaved; label: 5'-6-FAM in AUC; hairpin, 5 bp, 1 nt 5' overhang.
For data set [9] the target is unchanged. Briefly: SPR; 300 mM KCl; increased, approaching F5; 20 mM HEPES, 150 mM KCl (300 mM in second ReDCaT), pH 7.0, +0.05% Tween 20 for SPR; ReDCaT 20 uM protein; AUC 20 C; NMR 20 mM MES, 150 mM KCl, pH 6.0, 25 C. The note with it: protein: recombinant; tags: C-terminal 3C site-His tag, cleaved; label: 5'-biotin strand 3; nicked.
For data set [10] the target is unchanged. Briefly: AUC; 1.5 mM protein; 1:1; Kd stated in mM range; 20 mM HEPES, 150 mM KCl (300 mM in second ReDCaT), pH 7.0, +0.05% Tween 20 for SPR; ReDCaT 20 uM protein; AUC 20 C; NMR 20 mM MES, 150 mM KCl, pH 6.0, 25 C. The note with it: protein: recombinant; tags: C-terminal 3C site-His tag, cleaved; label: 3'-ATTO 647N in AUC; hairpin, 5 bp, TTTT loop.
Data set [11] shares this target. As to the kind of experiment: AUC; 2-3 proteins per DNA, saturated; 20 mM HEPES, 150 mM KCl (300 mM in second ReDCaT), pH 7.0, +0.05% Tween 20 for SPR; ReDCaT 20 uM protein; AUC 20 C; NMR 20 mM MES, 150 mM KCl, pH 6.0, 25 C. Particulars: protein: recombinant; tags: C-terminal 3C site-His tag, cleaved; label: 3'-ATTO 647N strand 1; blunt.

Residue numbers refer to the chain shown, from its start.

B1: P6 (boxA) (dsDNA)
DNA 1: ATTAGGTTTATATAAGGTTTTATCATTCAG
DNA 2: CTGAATGATAAAACCTTATATAAACCTAATCCTACCCTACGTCCTCCTGC
DNA 3: GCAGGAGGACGTAGGGTAGG
Consider B1, for which the binding result in [1] is given as “binds”.

B2: P6_F3 (dsDNA)
DNA 1: B1 DNA 1 with C24A, A25C, T26A
DNA 2: B1 DNA 2 with A5T, T6G, G7T
DNA 3: GCAGGAGGACGTAGGGTAGG
As for B2, the binding result in data set [2] is on record as “binds”.

B3: 30-bp AUC DNA (dsDNA)
DNA 1: ATAGAAAAAACCTCCTTAAAACTATATTTG
DNA 2: CAAATATAGTTTTAAGGAGGTTTTTTCTAT
With B3, the binding result in data set [3] is reported as “binds”.

B4: F5 (S5) (dsDNA)
DNA 1: TTTTATGAAAGAACCTAAACTATCTCCAAA
DNA 2: TTTGGAGATAGTTTAGGTTCTTTCATAAAACCTACCCTACGTCCTCCTGC
DNA 3: GCAGGAGGACGTAGGGTAGG
As for B4, the binding result in data set [4] is “binds”.

B5: 20-bp linker dsDNA (dsDNA)
DNA 1: GCAGGAGGACGTAGGGTAGG
DNA 2: CCTACCCTACGTCCTCCTGC
Usually Kd stands for the free concentration of one partner at which half of the binding sites on the other are occupied at equilibrium, for simple one-to-one binding. On to B5, for which, in [5], the binding result was “no binding”. In addition, the figures for the Kd in [6] and in [7] (none in NMR) were 3080 ± 30 µM and 920 ± 10 µM, respectively.

B6: F3 (S3) (dsDNA)
DNA 1: ATTAGGTTTATATAAGGTTTTAATTAGGTT
DNA 2: AACCTAATTAAAACCTTATATAAACCTAATCCTACCCTACGTCCTCCTGC
DNA 3: GCAGGAGGACGTAGGGTAGG
As to B6, the binding result in [4] is recorded as “binds”.

B7: 18C-hairpin (structured_DNA)
DNA 1: AGTAGG
DNA 2: CCTAC
modifications: 18C spacer joins 3' end of strand 1 to 5' end of strand 2
Regarding B7, the binding result in [8] is on record as “binds”.

B8: F10 (S10) (dsDNA)
DNA 1: TTGGGGCAGAAAACTTACAGAAACCAGCTA
DNA 2: TAGCTGGTTTCTGTAAGTTTTCTGCCCCAACCTACCCTACGTCCTCCTGC
DNA 3: GCAGGAGGACGTAGGGTAGG
As to B8, the binding result in [4] is “binds”.

B9: 30-bp linker dsDNA (dsDNA)
DNA 1: GAGACCTGGAACGCGATCATTGGCAGCACG
DNA 2: CGTGCTGCCAATGATCGCGTTCCAGGTCTC
On to B9, for which the Kd in data set [7] is 1850 ± 20 µM.

B10: P8_F5 (dsDNA)
DNA 1: TTTCTATGGGAGAAGTAAACCTAAACTATCTCCAAA
DNA 2: TTTGGAGATAGTTTAGGTTTACTTCTCCCATAGAAACCTACCCTACGTCCTCCTGC
DNA 3: GCAGGAGGACGTAGGGTAGG
On to B10, for which, in data set [9], the binding result is listed as “binds”.

With GTAGGTTTTCCTAC (structured_DNA) [14-nt hairpin], in data set [10], the binding result is “binds”.

B11: 11-bp DNA (dsDNA)
DNA 1: GCCTACCCTAC
DNA 2: GTAGGGTAGGC
Turning to B11, the binding result in data set [11] was “binds”.
